Assay: soluble on expression in E. coli; label from the status in PepcDB or PDB records

Sequence | soluble on expression in E. coli
MGSDKIHHHHHHMNNLFDRIASRYVDGAEVFYGWMNMSLNQIKRAKKLGIKTIVECASSHPLYQLKILEEEYQKWNIPFKVGSQKIYLKALKEIKEADFIKIPSDFVQETFIKNGIPEEKLIKIPFGVDLEKFQPKDNYNNEIFRAVFVGTVSIRKGIPYLLKAWSELNLKDAQLYVVGAISPDVKIIIAKYSKLKNIIFTGRVKDIVPILRESNVFVFPSIEEGSALVTYEAMASGLPSIVTYNSGSIVRHGKDGFVIPIRDIKSLKDGIQYFYENPSEVKRMGKNARKHVEKYTWYNYGENLYNELKRLGLL | not soluble
MGSDKIHHHHHHMNNSASEQKWKWWPLLPLYPYGRRRTIFRELVPNQIWSFEQLQGIYYVAVPVRLLVIRVKNELMIINPLPPTSELLKEIDLLQKKIGPVKTIVLPTASGLEHKIGLPALARAFPNAKIWLCPGQWSFPFQLPFDWLGIPSNRTNILLADGFPHGDDCEWISLGPIDIGLARFQEISCFHKPTKSLLVTDALVGIEATPPELFNLDPTPLLFHSREKGSEELIDSPIARRKGWLRLVLFASYLKPEKLEIPKIKEILENSFKPKMRNKRSHFGIYPFAWQEGWDLSAKKLVGEKTPLIQIAPVIERLVFPRGKKAFISWLNKIESLKGISFLISAHYSGKVRFTTNEIRALKVKIDNSNWEKTQGDFKFLSWFDQKLLNFGIVPKNPLKKFSD | not soluble
MGSDKIHHHHHHMNNTRSAYEKIIKDLQGVGFSDYEAKTYIALLLTPNATAYEISKEAGIPKANCYSVLEALRKNGAVQAVSENPVKYVAVDPNRYFNQMVELTQLRCEDLKESLKNIGHLPQEDLVWSLNDAAAVGLHIEKMIGSARDTIRIKAADTTLEPHLPSLKKAARRGVKVLIILFGEDVRPFELGKNCKVYLHEGNGIRVGISHKLITVTRDYKEALVAEVGRDAYGSYTENKPIVTLADSLLRHEIYFAEIFSCFGDEIQEKFGPALVKLRESYLPADQADALKVFLETADPARLAGKATAA | not soluble
MGSDKIHHHHHHMNNYNDTIRNLDNIVYKPNNLMITNVKEEKQNAEYAGCIFHLNNKTIRFRKSKITPNKIGQFVSFWEKGDNMQNQAFSYNAAPDLLVITCIDDNKLGQFIFPKEILLKEKILRTENQKGKMAMRIYPIWDTPVSNQAKKSQLWQIQYFVDLSNHNNLTIDELLNLYS | not soluble
MGSDKIHHHHHHMNQPDAYLWEQHIPGGCHWSGILRRGTTLRMTDVSGGANASVLFFNQEEKLERYNMADTLKSQHTFRLTKGHACHSDMGRIFCCITADSAGWHDTVCGLSDADLIRRKYGTARYQEHRNQMFRNGLDGMLIELGKWGLGMRDVVSNINFFSKVTANSAGELTFHSGNSKAGDHVDLSFEMDTLVVLSAAPHPLDPSTTYQPGAVNLAAFATPSSAIAECAHISENQRARQNTECLYACHGGAA | not soluble
MGSDKIHHHHHHMNQTLRIGSGAAWWGDRVEPAALNAEHGALDYLCFETMAEATVSAAQVRLRRDSSFAGYDTYLDERMRAVLPACMRHGTRIISNQGWINPTGAAERIVQLLRDAGQHGVRVAAVCGSLITDRVLELADRVLENGAPVRSLAPDLISAEVYLGAEPIVAALRAGAQIVVTGRVADPSIFLAPMMHGFGWDPLDHERVGAGSAIGHLLECGAQVTGGYFCDPGFKELPEPWNFAFPIAEVQSDGTAVITKVAGSGGGVTLQTVKEQMLYEVHDPANYLTPDVVVDFTQARLEQIGPDRVRVTGLTGKPRTPTLKVTIGCAEGFIGEDMFFYAGPGALRRAQWARKILQERFRIVQLQAEELRIDFLGLNAIHGAATPADAVEPYEVAVRVAARTKTRAEAAKVGREVDGMAVSGIAHTGKRVPHQERWREVIGLWSALVPREAVPAHICYFES | not soluble
MGSDKIHHHHHHMNSEASENRPAHSATGTLWSWHGGNGALIWQLMFSSDAVMGIKRFPQERKAAFFCLESSTGRVLRDDFVLTAGDENETPVGDGWMIGLETVHGSRLVCHTYQPGSPEHLGIWAINLPEARVVWSRPDLTFTANLGDAFLAYRSIVFAGFPERDYVLIDPLSGCELEHLGTAHERPNQLRDAAQSEEERQRILLPDTVFDEAGHVENINHGATSVTVFHRMEPVAEGVPGWVSTLSVSECERLVHEDVMASGEPMPVFNSFLIKDDRLYYIREREFLVSFVVS | not soluble
MGSDKIHHHHHHMNSMLNILEEISSRIKRPLITLLLFKYLRSVKRLECKNGQIIEIDDPSKYFISDLVYVCDVFKHFKSIKVRNGKVILDGIPFRPSELRYIGDVIEKLKLRVGSNFIAEFIYNGRIVKFRLAMTSKGVTGVFSLYEMFVREDYKVFDYKGKTVLDVCGFIGDSALFFALNDAKKVVSFEPQREAYELLVENVKLNEFDNIIVAINEAVGEKDSMVEFLIPDEFSLGASRYIRAGKKTSVKVRDIIRVMNEFKPDIIKLDCEGCEYGIIDKLLKTGRIYDVEGLVVEFHDTPEVKRWDYIRSLPFDVAIISDNPHWKVTVVSIRVMQNDAPRHI | not soluble
MGSDKIHHHHHHMNSNFLSSYPRDVIAVLVKDDQPLEQPKCNVRLAEFTYATVGVNGEPTTASAAMLVPGGPQCQGPYPLLGWGDGTQTLRRDEMAKDIRDAKGNDPLVTHLASQGYVVVSTDYLGLGKSSYPFHPYLHSATEANAMIDALRAARTVLDRLNTPLSGKVMLSGYSVGGHAAMASQREIEAHLSKEFNLVASAPIAGPYALEQTFVDSWSGRNTVGESTFGLVLASYAIVGMQHAYQNIYTAPSQVFRAPWAATVESQFPGTKSLLDLFVDLPEIGKVKQYFQADFYRDFASNPNNPFRKDLARNDLLDWRPRTKTLLCGSSNDATVPLKNATTAIAAFEQRGSTQVSLVDLGTGKASDNSAGEHLAIKDSCIVAVRQQLLDKQR | not soluble
MGSDKIHHHHHHMNSVVNFRDIGGFPTQQGTVVKTGYFFRSGELVNVAQADQQKLVEDYQIKRIYDFRSAAETQERPDDSIQGTNYLHIDILADIQAQTASLEGMLKTVGSPDEAMDMAYKEMVLSNSGRKGYQTFFENFLSYPQEAILFHCFAGKDRTGIGAALILSALGVEHSYILEDYLKTNEQRKTANEQIIAQYQANGTPLAEIQQLETLLYVKKEYLATALQAIEKEFGSVEGYLKEGLGLPLSAKKDMLSLYTKS | not soluble
MGSDKIHHHHHHMNTKNYFIIGGTGGIGKAMVEQLLQTATNEHASTGMNNDTGIRVFATYHKSIPDFEADNLYWIAMDICDEQSIKHAVDTIKQQTTHIDWVINCAGLLHTKAQQPEKALQQLESEFFLQNMQVNALASLLIAKHIKPLLAKAERSADKPAIFATISARVGSISDNQLGGWYSYRMSKAALNMGMKNLSIEWSRSLKDVCVVVMQPGTVNTQLSAPFQGNVADGQLFSPTYSAECLLEVLSKMSAAQSGSFVDWAGESIPW | not soluble
MGSDKIHHHHHHMNTLANWKKFLLVAVIICFLVPIMTKAEIAEADTSSELIVSEAKNLLGYQYKYGGETPKEGFDPSGLIQYVFSKADIHLPRSVNDQYKIGTAVKPENLKPGDILFFKKEGSTGTVPTHDALYIGDGQMVHSTQSKGVIITNYKKSSYWSGTYIGARRIAADPATADVPVVQEAEKYIGVPYVFGGSTPSEGFDCSGLVQYVFQQALGIYLPRSAEQQWAVGEKVAPQNIKPGDVVYFSNTYKTGISHAGIYAGAGRFIQASRSEKVTISYLSEDYWKSKMTGIRRFDNLTIPKENPIVSEATLYVGEVPYKQGGVTPETGFDTAGFVQYVYQKAAGISLPRYATSQYNAGTKIEKADLKPGDIVFFQSTSLNPSIYIGNGQVVHVTLSNGVTITNMNTSTYWKDKYAGSIRVQ | not soluble
MGSDKIHHHHHHMNTRLKDTSGHSPIDPRILDEAAAWLMQLHASTVTDMERNAWEQWRLRSPQHRQAWERAEQLMNKMGGLPPALSMAALTHPGGNNRRAAIKKLALLMTALPASWAAWRVTPWEAWMAEYRTMVSEQREIELADGSQVRLNTATSIDVRFNAVQRLIVLHTGEILIQTAADNAVTPRPFQVLTAEGRLYALGTRFTVRQGEERSHVAVFDGAVAIHPKSGDSGVAQVLHAGNKTVFTAEAIEVSRPADDTDIAWTQGMLLADKMHLTDFTDELSRYRQGIVRCDPVLADLRISGAFPIRDTDRTLAMLQATYPVRIVYRTPYWVTLVPR | not soluble
MGSDKIHHHHHHMNVENQTPNVDHQEIAKFEAIASRWWDLEGEFKPLHRINPLRLGYISQRAEGLFGKKVLDVGCGGGILAESMAREGADVTGLDMGAEPLQVARLHALESGVTVDYVQETVEAHADAHSGLYDVVTCMEMLEHVPDPQSVVQACAKLVKPGGHVFFSTINRNAKAWMMAVIGAEYILKMVPRGTHDIKKFIRPAELMRWVDDTPLRERHITGLHYNLLTDRFKLGPNVDVNYMLHTSHDKQC | not soluble
MGSDKIHHHHHHMNWDDVRIFLAVARAGQILGAARRLELNHATVSRRIAALEDALRTKLFRRLTTGSELTPAGERFLDIAERMEGEMIAARSTISGEGDDISGTVRIGAPDGFGVAFLARRLGELTALHRELTIQLVPVPRSFSLSRREADIAITVERPTEGRLVAGKLVDYSLGLFASRAYADANGLPKTAAELGRHPLIGYVPDLIVSPSLDYAAEFSADWRTSFAISSALGQAEAVRSGAGIGILHTFVARSMPELVAVDAVAPIRRAYWLVYHESVRPLRRIQIVAGFITKAVERERSLFL | not soluble
MGSDKIHHHHHHMNYKITTLAENSVYGKGLQGEHGLSLLVEAGEHKVLFDTGASDLFLRNARLLGLDLSDVEYVVLSHGHRDHTGGLYAFLKMNSVAKVVCKREVFRKKFKNERENGMLHPEALDKSRFWLVDETTEIVPGVFAFPDVKVVDRNDTHFEHFFTEIEGEMRPDTFEDELALVLKGEKSLSVLSACSHRGITNIIRAVQNAFPGLGLKLVMGGFHIHNAEEEKFNVISAFLGMKLPKRLGVCHCTGIDKYALFRQQFNDRVFYNYTGWVETI | not soluble
MGSDKIHHHHHHMNYVKSKQRVADHGEVFTPAWLVEAMIDLVKDETERIDARFLEPACGSGNFLVPILQRKLAAVERKFGKSNFEKQHYALFAVMCTYGIELLADNIAECRANMLEIFADYLTLDESDELYRAAIYVLSQNLVHGDALKMRTSDGQPIAFAEWGYLGKGKFQRRDFRLDSLAMSSTFSVEGSLFAHLGKHEIFTPTRTYPPMTVSELAARAAEANL | not soluble
MGSDKIHHHHHHMPETAHGVPVSTVKPDGAAMALKSKLLLIILDGVPYRNWRRLMGNLEGWVQSGEARVWKMRSVLPSTSACCYASIHTGVSPQVHGILSNENRFRVGQPDIFSEVSKAGGKTGAVTHSYWSEFFRSYPFDLVEDMEYDEPGGPITHGRFHTMTGYNARNQMTPSDVDLFATLTMLTKRHGIDYGILHTCTLDSMGHRFGNDCHEMDHAVYAMDGMLAAFLPGWIAAGYEVMVTADHGQTDRGHHGGHDDEMQDFALYYFGQGQGPETDTLLDQLQLAPTVLSRLGVPVPATMKAKPFLS | not soluble
MGSDKIHHHHHHMPHHQPCPPASSLSAGPRGGVIMLILKNVTAVQLHPAKVQEGVDIAIENDVIVAIGDALTQRYPDASFKEMHGRIVMPGIVCSHNHFYSGLSRGIMANIAPCPDFISTLKNLWWRLDRALDEESLYYSGLICSLEAIKSGCTSVIDHHASPAYIGGSLSTLRDAFLKVGLRAMTCFETTDRNNGIKELQEGVEENIRFARLIDEAKKATSEPYLVEAHIGAHAPFTVPDAGLEMLREAVKATGRGLHIHAAEDLYDVSYSHHWYGKDLLARLAQFDLIDSKTLVAHGLYLSKDDITLLNQRDAFLVHNARSNMNNHVGYNHHLSDIRNLALGTDGIGSDMFEEMKFAFFKHRDAGGPLWPDSFAKALTNGNELMSRNFGAKFGLLEAGYKADLTICDYNSPTPLLADNIAGHIAFGMGSGSVHSVMVNGVMVYEDRQFNFDCDSIYAQARKAAASMWRRMDALA | not soluble

— the DeepSol protein solubility set
